# Reference: the nanobody polyreactivity screen of Harvey et al. (2022)
# Assay: yeast display, Sf9 membrane polyspecificity reagent, FACS + sequencing; frameworks hold sequencing errors
# Method in brief: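 A synthetic nanobody library was expressed on Saccharomyces cerevisiae BJ5465 by galactose induction for 36–48 hours. The library was stained for 1 hour at 4 °C with 10% biotinylated, detergent-solubilized Sf9 membrane reagent and enriched with streptavidin microbeads before FACS. Low and high (top ~1%) gates were set on anti-HA fluorescence for expression and streptavidin fluorescence for reagent binding, and each polyreactivity label reflects the gate of origin.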
row,Sequence,polyreactivity (PSR sort gate)
1,QVQLVESGGGLVQAGGSLRLSCAAWSIFYLNAMGWYRQAPGKERELVAAISSAGSTYYADSVKGRFTISRDNAKNTVYLQMNSLKPEDTAVYYCAAYWYDSPGVTEIWYDYWGQGTQVTVSS,low polyreactivity
2,QVQLVESGGGLVQAGGSLRLSCAAYAMGWYRQAPGKERELVAAISSSGGSTYYADSVKGRFTISRDNAKNTVYLQMNSLKPEDTAVYYCARDPDTYFFPPTGYYTSGFDSWGQGTQVTVSS,low polyreactivity
3,QVQLVESGGGLVQAGGSLRLSCAAYGFIFWYYDMGWYRQAPGKETELVAGITSGGSTNYEDSVKGRFTISRDNATNTVYLQMNRLKPEDTAVYYCAATYYGYHIRDDYWGQGTLVTVSS,low polyreactivity
4,QVQLVESGGGLVQAGGSLRLSCAAYGFTFAAYSMGWYRQAPGKEREFVAAITSRDGTTYYADSVKGRFTISGYNAKNTVYLQMNSLKPEDTAVFYCAKDHFNWGVSEVDSWRQGTQVTVSS,low polyreactivity
5,QVQLVESGGGLVQAGGSLRLSCAAYGFTIYYYTMGWYRQAPGKERELFAAISHSGSSTYYADSVKGRFTISRDNAKKTVNLQMNSLKPEDTAVYYCAASRSKNSALGGRVSIGDYWGQGTQVTVSS,high polyreactivity
6,QVQLVESGGGLVQAGGSLRLSCAAYGGTFNGNTMGWYRQAPGKERELVAVIDWSGGSTYYADSVKGRFTISRDNAKNTVYLQMNSLKPEDTAVYYCNADSDAQFREPKGLYYWGQGTQVTVSS,low polyreactivity
7,QVQLVESGGGLVQAGGSLRLSCAAYGIIFAYNAMGWYRQAPGKERELVATITDSGGSTSYADSEKGRFTISRDNAKNTVYLQMNSLKPEDTAVYYCAVLPVYWYWRNYVYLSGYDYWGQGTQVTVSS,low polyreactivity
8,QVQLVESGGGLVQAGGSLRLSCAAYGIIFRLKARGSNRQSPGKERELVAAITRRGGTTYYADSVKGRFTISRDNAKYTVYLQMNSLKPEDTAVFFCNTYYYWQYDWGQGTQVSVSS,high polyreactivity
9,QVQLVESGGGLVQAGGSLRLSCAAYGITFPSYTMGWYRQAPGKERELVATIRNGGSTYYADSVKGRFTISRDNAKNTVYLQMNSLKPEDTAVYYCAAKDTGYGYGVPRLDYWGQGTQVTVSS,low polyreactivity
10,QVQLVESGGGLVQAGGSLRLSCAAYGITFPVNAMGWYRQAPGKERELVAGIYFSGDSTYYADSVKGRFTISRDNAKNTVYLQMKSLKPEDTAVYYCAAEVWAFVYYFEYSTMYYWGHGTQVTVSS,low polyreactivity
11,QVQLVESGGGLVQAGGSLRLSCAAYGITFVPNAMGWYRQAPGKERELVAAITSGDSTNYADSVKGRFTISRDNAKNTVYLQMNSLKPDDTAVYYCAADSWAQRPNQGRVSLHYYWGQCTQVTVSS,low polyreactivity
12,QVQLVESGGGLVQAGGSLRLSCAAYGITFYWYAMGRYRQAPGKEWELVAGISQSGSRTYYADSVKGRFTISRDNAKNTVYLQMNSLKPEDTAVYYCAARVRWSPTRTFEYWGQGTQVTVSS,high polyreactivity
13,QVQLVESGGGLVQAGGSLRLSCAAYGLIFTHNTMGWYRQAPGKERELVAAITTSGGTTYYADSVKGRFTISRDNAKNTVYLQMNSLKPEDTAVYYCNALYLSTRSGDYWGQGTQVTVSS,high polyreactivity
14,QVQLVESGGGLVQAGGSLRLSCAAYGLTFCLNAMGWYRQAPGKERYLVAAIRYSGGGTYADSVKGRFTISRDNAMNTVYLQMISLKPEDTAVYYCAALYYLGYPQFDYWGQGTQVTVSS,low polyreactivity
15,QVQLVESGGGLVQAGGSLRLSCAAYGLTFDSYAMGWYRQAPGKERELVAAISYGGGSTNFADSVKGRFTISRDNAKNTVYLQLNSLKPVDTAVYYCGAEPGYYDEYGYWGQGTQVTVSS,low polyreactivity
16,QVQLVESGGGLVQAGGSLRLSCAAYGRIFDNNAMGWYRQAPGKERELVAAIDWRGGSTDYADSVKGRFTISRDNAKNTVYLQMNSLKPEDTAVYYCVAGHVPYWHGNSYDYWGQGTQVTVSS,low polyreactivity

row,Sequence,polyreactivity (PSR sort gate)
1,QVQLVESGGGLVQAGGSLRLSCAAYGRIFYYNAMGWFRQAPGKERELVASIDNGGSTNYADSVKGRFTISRDNAKNTVYLQMNSLKPEDTAVYYCNVDLYYEVSHVFLYEYDYWGQGTQVTVSS,low polyreactivity
2,QVQLVESGGGLVQAGGSLRLSCAAYGRILYYYAMGWYRQAPGKETELVAAITETSGSTYYADSVKGRFTISRDNAKTTVYLQMNSLHPEDTAVYYCAASSTRGHYTAYDYWGQGTHVTVSS,low polyreactivity
3,QVQLVESGGGLVQAGGSLRLSCAAYGRTFLFYAMGWYIQAPGKERELVAAITRSDGSTYYADSVKGRFTISRDNAKNTVYLQMNSLKPEDTAVYYCAAEYVSILRDYDYWGQGTQVTVSS,low polyreactivity
4,QVQLVESGGGLVQAGGSLRLSCAAYGSIFEGNPMGWYRQAPGKERELVASISGDGSTNYADSVKGRFTISRDNAKNTVYLQMNSLKPEDTAVYYCNADTISEPGFHMDYWGQGTQVTVSS,low polyreactivity
5,QVQLVESGGGLVQAGGSLRLSCAAYGSIFIYAMGGYRQAPGKVRELVAAISSSGGSTYYADSVKGRFTISRDNAKNTVYLQMNSLKPEDTAVYYCAARYTYSGDKGYYWGQGTQVTVSS,high polyreactivity
6,QVQLVESGGGLVQAGGSLRLSCAAYGSIFKWYTMGWYRQAPGKERELVADINWNGGRTYYADSVKGRFTISRDYAKNTVYLQMNSLKPEDTAVFDCAASRGDYWGQGTQVTVSS,high polyreactivity
7,QVQLVESGGGLVQAGGSLRLSCAAYGSNFYLYAMGWYRQAPGKERELVAAITRGGTTNYADSVKGRFTISRDNAKNTVYLQMNSLKPEDTAVYYCAKEVTTLLSLYEIVDRDYWGQGTQVTVSS,low polyreactivity
8,QVQLVESGGGLVQAGGSLRLSCAAYGSTFCVYAMGWYRQAQGKERELVAAINFSGRTYYADSVKVRFSISRDNAKNTVYVQMNSLKPEDTAVYYCAARIIFEDVGTKYYYWGQGTHVTVSS,high polyreactivity
9,QVQLVESGGGLVQAGGSLRLSCAAYGSTFQPYAMGWYRPATGKEREFVATISGSAGSTYYADSVKGRFKISRDNAKNTVYLQMNSLKPEDTAVDYCNADSGWFGYDYWGQGTQVTVSS,low polyreactivity
10,QVQLVESGGGLVQAGGSLRLSCAAYGSTFRYYAMGWYRQAPGKERELVAAITSSGGSTYYADSVKGRFTISRDNAKNTVFLQMNSLKPEDTAVYYCAVAVKNWVKLNYWGQGSQVTVSS,high polyreactivity
11,QVQLVESGGGLVQAGGSLRLSCAAYGSTFRYYTMGWYRQAPGKERELVAAISGSGGITYYADSLKGRFTISRDNAKNTVYLQMNSLKPEDTAVYYCAAESRYYPYWGQSVQYDYWGQGTQVTVSS,high polyreactivity
12,QVQLVESGGGLVQAGGSLRLSCAAYGSTFSTYAMGWYRQAPGKEREMVAAITLSSGRTTYADSVKGRFTISRDNAKNTVYLQMNSLKPEDTAVYYCNAYYGAAFTYWDYYWGQGTQVTVSS,low polyreactivity
13,QVQLVESGGGLVQAGGSLRLSCAAYGSTFVLYGMGWYRQAPGKEWELVAAISTSGGRTYYADSEKGRFTISRDNAKNSVSLQMNSLKPEDTAVYYCAALTYVAHYDEYWGQGTQVTVSS,low polyreactivity
14,QVQLVESGGGLVQAGGSLRLSCAAYGSTFWPYAKGWSRQAPGKERELVAAISSSGGSTYYADSVKGRFTISRDNAKHTVYLQMNSLIPEDTAVYYCNIDYHRPYGGGSKGDFWGQGTQVTVSS,low polyreactivity
15,QVQLVESGGGLVQAGGSLRLSCAAYGSTYGTNALGWYRQAPGKERELVAAITSRVGRTYYADSVKGRFTISRDNAKNTVYLQMNSLKPEDTAVYYCAASRLVRYQSRYGSWGQGTQVTVSS,high polyreactivity
